Experimental data from the supplement of paper PMC9112550, “Optimization of the antimicrobial peptide Bac7 by deep mutational scanning” (BMC Biology, 2022).

Tested on: Escherichia coli TOP10
Experiment: shrunken log2 fold change of peptide-encoding DNA abundance (4.5 h post-induction vs induction); higher = less antimicrobial activity (less host growth inhibition)
Details: time post-induction: 4.5 h; library: site-saturation at positions 5, 18, 19, 20
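Further: peptides expressed intracellularly from a pBAD plasmid library in pooled LB shake-flask culture, induced with 0.3% L-arabinose, DNA abundance read by NGS, three biological replicates, DESeq2 with apeglm shrinkage.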

Sequence | shrunken log2 fold change
RRIRKRPPRLPRPRPRPYLAPRP | -0.295
RRIRVRPPRLPRPRPRPSVSPRP | -0.488
RRIRGRPPRLPRPRPRPMQTPRP | 0.0492
RRIRHRPPRLPRPRPRPRQSPRP | 0.144
RRIRSRPPRLPRPRPRPVDSPRP | -0.0776
RRIRIRPPRLPRPRPRPTMGPRP | 0.0793
RRIRPRPPRLPRPRPRPLVVPRP | -0.0898
RRIRWRPPRLPRPRPRPFGEPRP | 0.439
RRIRLRPPRLPRPRPRPWGNPRP | -0.106
RRIRYRPPRLPRPRPRPRCSPRP | -0.173
RRIRERPPRLPRPRPRPPSHPRP | -0.209
RRIRSRPPRLPRPRPRPSMYPRP | -0.286
RRIRHRPPRLPRPRPRPLDFPRP | -0.342
RRIRHRPPRLPRPRPRPPLPPRP | 0.476
RRIRIRPPRLPRPRPRPKRNPRP | -0.0625
RRIRRRPPRLPRPRPRPCQLPRP | -0.231
RRIRIRPPRLPRPRPRPDSYPRP | 0.072
RRIRRRPPRLPRPRPRPIKSPRP | -0.254
RRIRIRPPRLPRPRPRPEMHPRP | -0.328
RRIRQRPPRLPRPRPRPSDGPRP | -0.0586
RRIRPRPPRLPRPRPRPTQIPRP | 0.13
RRIRFRPPRLPRPRPRPWLPPRP | -0.0149
RRIRVRPPRLPRPRPRPITCPRP | -0.324
RRIRSRPPRLPRPRPRPNGGPRP | -0.0284
RRIRERPPRLPRPRPRPHRTPRP | -5.56e-05

Sequence | shrunken log2 fold change
RRIRDRPPRLPRPRPRPTLAPRP | 0.933
RRIRHRPPRLPRPRPRPLQFPRP | -0.28
RRIRARPPRLPRPRPRPNHFPRP | -0.0665
RRIRARPPRLPRPRPRPEFNPRP | 1.05
RRIRFRPPRLPRPRPRPCFVPRP | -0.578
RRIRKRPPRLPRPRPRPDHWPRP | 0.355
RRIRVRPPRLPRPRPRPGHKPRP | -0.17
RRIRKRPPRLPRPRPRPIMTPRP | -0.111
RRIRFRPPRLPRPRPRPKDVPRP | -0.00433
RRIRYRPPRLPRPRPRPQPSPRP | 0.0385
RRIRQRPPRLPRPRPRPQEHPRP | -0.942
RRIRCRPPRLPRPRPRPQWEPRP | 0.0667
RRIRSRPPRLPRPRPRPRGIPRP | -0.33
RRIRRRPPRLPRPRPRPATKPRP | 0.0529
RRIRVRPPRLPRPRPRPGPYPRP | -0.0621
RRIRNRPPRLPRPRPRPQNSPRP | -0.38
RRIRSRPPRLPRPRPRPNHEPRP | -0.175
RRIRGRPPRLPRPRPRPKRLPRP | 0.217
RRIRDRPPRLPRPRPRPSGWPRP | 0.558
RRIRMRPPRLPRPRPRPTLIPRP | 0.00162
RRIRWRPPRLPRPRPRPWTYPRP | -0.0122
RRIRPRPPRLPRPRPRPHFRPRP | 0.0655
RRIRARPPRLPRPRPRPQNLPRP | -0.564
RRIRQRPPRLPRPRPRPNCAPRP | 0.00462
RRIRVRPPRLPRPRPRPRQEPRP | -0.0401
